These results are taken from patent EP4613288A1.

Where only a bound is given, the exact number is not on record here.

For test [1], the target named is human activated protein C (human) (UniProt P04070). Put plainly: cell-based or functional assay.
Test [2] shares this target.

B1: murine antibody HAPC1573 (antibody, from another filing, V domains shown)
VH: EVKLEESGGGLVQPGGSMKLSCVASGFTFSNYYLNWVRQSPEKGLEWVADIRLKSNNYEKHYAESVKGRFTISRDDSKSSVYLQMNNLRAEDTGIYYCIREGDYFDYWGQGTTLTVSS
VL: NIVLTQSPASLAVSLGQRATISCRASESVDSFGATFMHWYQQKPGQPPKLLIYLASNLESGVPARFSGSGSRTDFTLTIDPVEADDAATYYCQQNNEDPYTFGGGTKLEIKR
In test [1], B1 displayed a Mean Value of the Clotting Time (s), Protac-induced APTT, FIX-deficient plasma, antibody 0.5 µg/ml of 584 s; a Mean Value of the Clotting Time (s), Protac-induced APTT, FIX-deficient plasma, antibody 1 µg/ml of 567 s; a Mean Value of the Clotting Time (s), Protac-induced APTT, FIX-deficient plasma, antibody 5 µg/ml of 404 s; a Mean Value of the Clotting Time (s), Protac-induced APTT, FVIII-deficient plasma, antibody 0.5 µg/ml of 600 s. In test [1], this molecule displayed a Mean Value of the Clotting Time (s), Protac-induced APTT, FVIII-deficient plasma, antibody 1 µg/ml of 629 s; a Mean Value of the Clotting Time (s), Protac-induced APTT, FVIII-deficient plasma, antibody 5 µg/ml of 389 s; a minimal dose inhibiting aPC anticoagulant activity, Protac-induced APTT, human plasma deficient in various coagulation factors above 100 µg/mL.

B2: anti-aPC monoclonal antibody HAPC-14-6 (antibody, V domains shown)
VH: EVQLVESGGGLVQPGGSLRLSCAASGFTFSFYYLNWVRQAPGKGLEWVGDIRLKKNNYEKHYAESVKGRFTISRDDSKSITYLQMNSLRAEDTAVYYCAREGDYFDYWGQGTTVTVSS
VL: DIQLTQSPSSLSASVGDRVTITCRASESVDSFGATFMHWYQQKPGKAPKLLIYLASRLGSGVPSRFSGSGSGTDFTLTISSLQPEDFATYYCQQNNEDPYTFGQGTKLEIK
In test [2], B2 displayed a fold increase in affinity compared to the humanized antibody without mutations in the CDR regions of 100 fold. In test [1], this molecule came in with a Mean Value of the Clotting Time (s), Protac-induced APTT, FIX-deficient plasma, antibody 0.5 µg/ml of 181 s; a Mean Value of the Clotting Time (s), Protac-induced APTT, FIX-deficient plasma, antibody 1 µg/ml of 198 s; a Mean Value of the Clotting Time (s), Protac-induced APTT, FIX-deficient plasma, antibody 5 µg/ml of 180 s; a Mean Value of the Clotting Time (s), Protac-induced APTT, FVIII-deficient plasma, antibody 0.5 µg/ml of 182 s. Further, in test [1], the Mean Value of the Clotting Time (s), Protac-induced APTT, FVIII-deficient plasma, antibody 1 µg/ml was 187 s; the Mean Value of the Clotting Time (s), Protac-induced APTT, FVIII-deficient plasma, antibody 5 µg/ml came out at 162 s; the minimal dose inhibiting aPC anticoagulant activity, Protac-induced APTT, human plasma deficient in various coagulation factors was below 1 µg/mL.
